In paper PMC5449630:

Columns and labels:
[1] = molecular target: CK2-phosphorylated XRCC4(1-238)-LigIV(654-911) complex (UniProt Q13426); assay: SAXS
[2] = molecular target: CK2-phosphorylated XRCC4(1-238)-LigIV(654-911) complex (UniProt Q13426); assay: SEC-MALS

Chain of CK2-phosphorylated XRCC4(1-238)-LigIV(654-911) complex (Q13426 1-238, chain 1 of 2): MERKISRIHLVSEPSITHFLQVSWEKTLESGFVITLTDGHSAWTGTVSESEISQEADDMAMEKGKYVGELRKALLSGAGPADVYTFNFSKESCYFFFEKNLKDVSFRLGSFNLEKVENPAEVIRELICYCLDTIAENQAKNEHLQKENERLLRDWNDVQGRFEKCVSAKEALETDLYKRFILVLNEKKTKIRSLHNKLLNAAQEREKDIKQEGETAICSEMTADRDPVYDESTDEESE
Chain of CK2-phosphorylated XRCC4(1-238)-LigIV(654-911) complex (P49917 654-911, chain 2 of 2, further chain): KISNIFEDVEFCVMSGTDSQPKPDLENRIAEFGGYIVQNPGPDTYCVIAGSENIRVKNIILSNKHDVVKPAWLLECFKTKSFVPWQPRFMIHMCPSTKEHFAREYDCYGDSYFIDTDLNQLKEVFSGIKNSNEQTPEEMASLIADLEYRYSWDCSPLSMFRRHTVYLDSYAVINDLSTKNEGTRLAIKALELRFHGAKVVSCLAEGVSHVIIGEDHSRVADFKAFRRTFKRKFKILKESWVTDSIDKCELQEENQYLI

Substance: polynucleotide kinase/phosphatase (PNKP), full length, wild type (from UniProt Q96T60 1-521) (enzyme)
- stoichiometry N (PNKP per pXRCC4 dimer-LigIV complex) [1]: 1
- stoichiometry N (PNKP per pXRCC4 dimer-LigIV complex) [2]: 1
